Results on 29 substances are retold here after US10738094B2, “Peptides and combination of peptides for use in immunotherapy against ovarian cancer and other cancers” (immatics biotechnologies GmbH, priority 2015, dated 2020).

The target in this assay is HLA-A*02:01 (Homo sapiens, UniProt P04439, D140Y/D185E/D98H/E176V/E277Q/G131W/G231S/I119V/I121R/I166T/I218V/L300P/L318F/N151K/N90K/P208A/P217A/Q86G/Q94H/R138H/R169H/T345S). Kind of assay: MHC binding assay (UV-ligand exchange, beta2m ELISA). The conditions noted are these: binding to HLA-A*02:01 ranged by peptide exchange yield (UV-ligand exchange, β2m ELISA). From the text:
Candidate peptides for T cell based therapies according to the present invention were further tested for their MHC binding capacity (affinity). The individual peptide-MHC complexes were produced by UV-ligand exchange, where a UV-sensitive peptide is cleaved upon UV-irradiation, and exchanged with the peptide of interest as analyzed. Only peptide candidates that can effectively bind and stabilize the peptide-receptive MHC molecules prevent dissociation of the MHC complexes. To determine the yield of the exchange reaction, an ELISA was performed based on the detection of the light chain (β2m) of stabilized MHC complexes. The assay was performed as generally described in Rodenko et al. (Rodenko et al., 2006).
96 well MAXISorp plates (NUNC) were coated over night with 2 ug/ml streptavidin in PBS at room temperature, washed 4× and blocked for 1 h at 37° C. in 2% BSA containing blocking buffer. […] Peptide-MHC monomers of the UV-exchange reaction were diluted 100 fold in blocking buffer. Samples were incubated for 1 h at 37° C., washed four times, incubated with 2 ug/ml HRP conjugated anti-β2m for 1 h at 37° C., washed again and detected with TMB solution that is stopped with […]. Absorption was measured at 450 nm. Candidate peptides that show a high exchange yield (preferably higher than 50%, most preferred higher than 75%) are generally preferred for a generation and production of antibodies or fragments thereof, and/or T cell receptors or fragments thereof, as they show sufficient avidity to the MHC molecules and prevent dissociation of the MHC complexes.
For the substance “390 (ALFMKQIYL; listed as Homo sapiens) [compound 390]”, the Peptide exchange entry is on record as ““+++” (≥50 = +++)”.
The same measure for “309 (GLFDGVPTTA; listed as Homo sapiens) [compound 309]”: ““+++” (≥50 = +++)”; for “138 (YQYPRAILSV; listed as Homo sapiens) [compound 138]”: ““+++” (≥50 = +++)”.
With “87 (ALPEAPAPLLPHIT; listed as Homo sapiens) [compound 87]”, the Peptide exchange result is ““++” (≥20% = ++)”.
The same measure for “33 (VLLSLLEKV; listed as Homo sapiens) [compound 33]”: ““++” (≥20% = ++)”.
Then “590 (SLIEKLWQT; listed as Homo sapiens) [compound 590]”, with ““++” (≥20% = ++)”; and “505 (SLAPGDVVRQV; listed as Homo sapiens) [compound 505]”, with ““++” (≥20% = ++)”.
The same measure for “484 (SLIEKVTQL; listed as Homo sapiens) [compound 484]”: ““+++” (≥50 = +++)”; for “544 (LLWDVPAPSL; listed as Homo sapiens) [compound 544]”: ““+++” (≥50 = +++)”.
In the case of “217 (ALIHPVSTV; listed as Homo sapiens) [compound 217]”, the Peptide exchange entry is ““++” (≥20% = ++)”.
The same measure for “62 (VLLDVSAGQLLM; listed as Homo sapiens) [compound 62]”: ““++++” (≥75% = ++++)”; for “224 (TLIDAQWVL; listed as Homo sapiens) [compound 224]”: ““+++” (≥50 = +++)”.
The same measure for “487 (LLINSVFHV; listed as Homo sapiens) [compound 487]”: ““+++” (≥50 = +++)”; for “210 (LLLNAVLTV; listed as Homo sapiens) [compound 210]”: ““++” (≥20% = ++)”.
The same measure for “183 (FGLDLVTEL; listed as Homo sapiens) [compound 183]”: ““+++” (≥50 = +++)”.
As for “512 (SLSEIVPCL; listed as Homo sapiens) [compound 512]”, the Peptide exchange entry was ““+++” (≥50 = +++)”.
As to “157 (SLNDEVPEV; listed as Homo sapiens) [compound 157]”, the Peptide exchange entry was ““++” (≥20% = ++)”.
On to “142 (FLFATPVFI; listed as Homo sapiens) [compound 142]”, for which the Peptide exchange entry was ““+++” (≥50 = +++)”.
The same measure for “265 (LLFGGTKTV; listed as Homo sapiens) [compound 265]”: ““++” (≥20% = ++)”.
As for “377 (FLLDSSASV; listed as Homo sapiens) [compound 377]”, the Peptide exchange entry is reported as ““++” (≥20% = ++)”.
Then “331 (KVDTVWVNV; listed as Homo sapiens) [compound 331]”, with ““+++” (≥50 = +++)”; and “389 (LLADVTHLL; listed as Homo sapiens) [compound 389]”, with ““++” (≥20% = ++)”.
The same measure for “270 (LLLDEEGTFSL; listed as Homo sapiens) [compound 270]”: ““++” (≥20% = ++)”; for “281 (ILRESTEEL; listed as Homo sapiens) [compound 281]”: ““+++” (≥50 = +++)”; for “185 (FLIDDKGYTL; listed as Homo sapiens) [compound 185]”: ““++” (≥20% = ++)”.
Then “306 (ALVNVQIPL; listed as Homo sapiens) [compound 306]”, with ““+++” (≥50 = +++)”.
In the case of “84 (VTFGEKLLGV; listed as Homo sapiens) [compound 84]”, the Peptide exchange result is recorded as ““++” (≥20% = ++)”.
The same measure for “560 (ALWDIETGQQTTT; listed as Homo sapiens) [compound 560]”: ““+++” (≥50 = +++)”; for “196 (YLYSVEIKL; listed as Homo sapiens) [compound 196]”: ““++++” (≥75% = ++++)”.
